# Laboratory results as given in US6927286B1, “Bleomycin gene cluster components and their uses” (The Regents of the University of California, priority 1999, dated 2005).
# B1: BlmI: type II peptidyl carrier protein of 90 amino acids encoded by blmI (protein)
# chain: MGAPRGERTRRRALERDIAAIWAETLGRDSVGPHEDFAALGGNSIHAIKITNRVEELVDAELSIRVLLETRTVAGMTDHVHATLTGERDRHHHHHH
# modifications: left off: small tags and cut ends
# notes: type II peptidyl carrier protein of 90 amino acids encoded by blmI
# B2: PptA: phosphopantetheinyl transferase of 246 amino acids encoded by pptA from S. verticillus ATCC15003 (protein)
# chain: MIAALLPSWAVTEHAFTDAPDDPVSLLFPEEAAHVARAVPKRLHEFATVRVCARAALGRLGLPPGPLLPGRRGAPSWPDGVVGSMTHCQGFRGAAVARAADAASLGIDAEPNGPLPDGVLAMVSLPSEREWLAGLAARRPDVHWDRLLFSAKESVFKAWYPLTGLELDFDEAELAVDPDAGTFTARLLVPGPVVGGRRLDGFEGRWAAGEGLVVTAIAVAAPAGTAEESAEGAGKEATADDRTAVPHHHHHH
# B3: Sfp PPTase from the surfactin producer Bacillus subtilis (protein)
# chain: MKIYGIYMDRPLSQEENERFMSFISPEKREKCRRFYHKEDAHRTLLGDVLVRSVISRQYQLDKSDIRFSTQEYGKPCIPDLPDAHFNISHSGRWVICAFDSQPIGIDIEKTKPISLEIAKRFFSKTEYSDLLAKDKDEQTDYFYHLWSMKESFIKQEGKGLSLPLDSFSVRLHQDGQVSIELPDSHSPCYIKTYEVDPGYKMAVCAAHPDFPEDITMVSYEELL
# What was measured:
# [1] = system: T1, apo-BlmI (type II peptidyl carrier protein BlmI, apo-form, produced from pBS2)
# T1 sequence: B1 chain
# [2] = system: T2, holo-BlmI (4'-phosphopantetheinylated BlmI, produced from pBS2)
# T2 sequence: B1 chain
# [3] = target: apo-BlmI (type II peptidyl carrier protein BlmI, apo-form, produced from pBS2) (Streptomyces verticillus ATCC15003); assay: cell-based or functional assay
# Gsp PPTase = target: T3, Gsp PPTase (Aneurinibacillus migulanus, UniProt P40683); assay: In vivo 4′-phosphopantetheinylation of BlmI co-expressed with gsp in E. coli OG7001; type: cell-based; conditions: E. coli OG7001(pBS2/pDPT-Gsp), HPLC analysis
# T3 construct: expressed in transfected cells; host or cells: E. coli OG7001 (pBS2/pDPT-Gsp)
# T3 sequence (P40683 whole entry, looked up): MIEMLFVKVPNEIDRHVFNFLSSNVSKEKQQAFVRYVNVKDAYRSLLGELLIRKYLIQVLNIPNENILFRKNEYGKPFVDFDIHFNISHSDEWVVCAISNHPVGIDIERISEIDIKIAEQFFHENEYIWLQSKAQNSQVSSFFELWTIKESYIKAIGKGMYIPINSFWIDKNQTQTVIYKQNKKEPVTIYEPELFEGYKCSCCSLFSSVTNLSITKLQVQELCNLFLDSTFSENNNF
# Text: (§1) To examine 4′-phosphopantetheinylation of BlmI in vivo, we chose E. coli OG7001 as the expression host, which is a β-alanine auxotroph derived from E. coli BL21(DE3) by P1 co-transduction of the panD mutation from E. coli SJ16 (Epple et al. (1998) J. Bacteriol. 180: 4950-4954). Upon introduction of pBS2 into E. coli OG7001, blmI was exceptionally well expressed and the overproduced BlmI protein was readily purified. […] To circumvent the poor endogenous PPTase activity, we next co-expressed blmI with the gsp gene, which was isolated from the gramicidin S producer Bacillus brevis, and encoded a PPTase that was known to 4′-phosphopantetheinylate heterologously produced PCPs in E. coli (Lambalot et al. (1996) Chem. Biol. 3: 923-936; Ku et al. (1997) Chem. Biol. 4: 203-207). We co-transformed pDPT-Gsp, in which the expression of the gsp gene was under the control of the T5/Lac promoter (Ku et al. (1997) Chem. Biol. 4: 203-207), and pBS2 into E. coli OG7001. BlmI was again very well expressed and the resulting BlmI protein was similarly purified. […]
# (§2) Samples of BlmI (30-70 μg) purified from E. coli OG7001(pBS2) or E. coli OG7001(pBS2/pDPT-Gsp) were analyzed on a Nova-Pak C18 column (5 mm×10, Waters, Milford, Mass.) using a Rainin DMAX HPLC unit. […]
# [4] = system: E. coli endogenous PPTases; assay: In vivo 4′-phosphopantetheinylation of BlmI in E. coli OG7001 without Gsp; type: cell-based; conditions: E. coli OG7001(pBS2), HPLC analysis
# Text: as §1, §2
# BlmI = assay: In vitro phosphopantetheinylation assay of PptA; conditions: (3H)-(pantetheinyl)-CoASH, autoradiography
# TcmM = target: T4, TcmM (Streptomyces glaucescens, UniProt P12884); assay: In vitro phosphopantetheinylation assay of PptA; type: biochemical, S. glaucescens; conditions: (3H)-(pantetheinyl)-CoASH, autoradiography
# T4 construct: His6 (N); His6 (C); made in house; host or cells: E. coli BL21(DE3) (pET28a-TcmM)
# T4 sequence (P12884 1-83): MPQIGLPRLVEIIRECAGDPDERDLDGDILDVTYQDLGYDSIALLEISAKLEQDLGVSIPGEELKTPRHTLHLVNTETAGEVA
# T4 sequence (Q9F0Q6 1-246 partner): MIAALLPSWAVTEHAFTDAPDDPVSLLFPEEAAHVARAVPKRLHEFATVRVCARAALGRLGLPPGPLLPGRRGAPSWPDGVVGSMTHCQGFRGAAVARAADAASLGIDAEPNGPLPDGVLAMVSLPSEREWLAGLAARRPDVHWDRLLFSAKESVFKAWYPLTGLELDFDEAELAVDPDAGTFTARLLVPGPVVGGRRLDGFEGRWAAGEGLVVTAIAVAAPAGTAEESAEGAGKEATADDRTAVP
# BlmVIII = assay: In vitro phosphopantetheinylation assay of PptA; type: biochemical, S. verticillus; conditions: (3H)-(pantetheinyl)-CoASH, autoradiography
# Sequence of BlmVIII (as listed by the source, one chain of several): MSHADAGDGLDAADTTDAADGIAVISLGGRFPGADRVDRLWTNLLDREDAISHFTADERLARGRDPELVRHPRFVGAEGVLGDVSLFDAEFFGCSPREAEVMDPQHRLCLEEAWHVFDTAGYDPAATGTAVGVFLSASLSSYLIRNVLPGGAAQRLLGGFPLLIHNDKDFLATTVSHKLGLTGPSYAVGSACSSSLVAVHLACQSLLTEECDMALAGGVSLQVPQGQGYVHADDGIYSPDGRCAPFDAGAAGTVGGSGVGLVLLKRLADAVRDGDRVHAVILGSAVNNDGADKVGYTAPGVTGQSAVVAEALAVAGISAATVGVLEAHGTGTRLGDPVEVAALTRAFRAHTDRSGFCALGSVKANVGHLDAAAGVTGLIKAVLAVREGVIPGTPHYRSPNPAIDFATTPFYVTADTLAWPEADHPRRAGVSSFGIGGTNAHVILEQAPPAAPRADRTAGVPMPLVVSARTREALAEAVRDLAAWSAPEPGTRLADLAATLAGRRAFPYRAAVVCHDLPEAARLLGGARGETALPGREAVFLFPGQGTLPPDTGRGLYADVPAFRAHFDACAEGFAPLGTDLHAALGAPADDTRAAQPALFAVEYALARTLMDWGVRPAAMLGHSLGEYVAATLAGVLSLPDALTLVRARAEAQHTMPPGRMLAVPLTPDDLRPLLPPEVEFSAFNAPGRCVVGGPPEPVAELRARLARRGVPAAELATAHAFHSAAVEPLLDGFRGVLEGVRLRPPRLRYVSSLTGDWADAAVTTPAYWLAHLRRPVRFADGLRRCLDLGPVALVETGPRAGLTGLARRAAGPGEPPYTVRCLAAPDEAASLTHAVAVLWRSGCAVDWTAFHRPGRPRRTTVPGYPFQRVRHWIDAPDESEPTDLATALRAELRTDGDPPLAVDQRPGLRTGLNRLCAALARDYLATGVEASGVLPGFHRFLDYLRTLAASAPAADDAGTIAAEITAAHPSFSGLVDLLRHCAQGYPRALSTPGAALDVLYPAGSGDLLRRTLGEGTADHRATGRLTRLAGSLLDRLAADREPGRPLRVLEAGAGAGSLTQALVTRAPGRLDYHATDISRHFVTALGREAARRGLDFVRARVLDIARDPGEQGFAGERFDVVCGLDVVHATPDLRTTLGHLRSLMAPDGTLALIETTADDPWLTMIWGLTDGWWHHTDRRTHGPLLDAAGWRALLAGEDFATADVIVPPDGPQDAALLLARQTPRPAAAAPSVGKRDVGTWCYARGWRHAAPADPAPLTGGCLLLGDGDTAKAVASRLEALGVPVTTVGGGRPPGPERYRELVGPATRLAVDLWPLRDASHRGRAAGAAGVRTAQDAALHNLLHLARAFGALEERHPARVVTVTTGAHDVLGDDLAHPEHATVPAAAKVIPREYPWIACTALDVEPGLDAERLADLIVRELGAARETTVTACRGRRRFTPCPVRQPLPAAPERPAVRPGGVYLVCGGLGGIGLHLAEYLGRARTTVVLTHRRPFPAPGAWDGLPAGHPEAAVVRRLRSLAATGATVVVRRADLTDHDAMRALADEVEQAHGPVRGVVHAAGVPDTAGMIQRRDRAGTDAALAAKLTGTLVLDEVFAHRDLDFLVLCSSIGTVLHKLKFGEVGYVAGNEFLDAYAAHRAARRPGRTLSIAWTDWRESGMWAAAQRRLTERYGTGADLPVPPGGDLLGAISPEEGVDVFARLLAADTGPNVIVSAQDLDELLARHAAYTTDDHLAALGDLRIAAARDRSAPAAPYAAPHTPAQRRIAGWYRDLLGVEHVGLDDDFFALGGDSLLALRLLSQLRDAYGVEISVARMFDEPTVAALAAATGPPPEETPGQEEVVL
# MBlmX-2 = assay: In vitro phosphopantetheinylation assay of PptA; conditions: (3H)-(pantetheinyl)-CoASH, autoradiography
# Sequence of MBlmX-2 (as listed by the source, one chain of several): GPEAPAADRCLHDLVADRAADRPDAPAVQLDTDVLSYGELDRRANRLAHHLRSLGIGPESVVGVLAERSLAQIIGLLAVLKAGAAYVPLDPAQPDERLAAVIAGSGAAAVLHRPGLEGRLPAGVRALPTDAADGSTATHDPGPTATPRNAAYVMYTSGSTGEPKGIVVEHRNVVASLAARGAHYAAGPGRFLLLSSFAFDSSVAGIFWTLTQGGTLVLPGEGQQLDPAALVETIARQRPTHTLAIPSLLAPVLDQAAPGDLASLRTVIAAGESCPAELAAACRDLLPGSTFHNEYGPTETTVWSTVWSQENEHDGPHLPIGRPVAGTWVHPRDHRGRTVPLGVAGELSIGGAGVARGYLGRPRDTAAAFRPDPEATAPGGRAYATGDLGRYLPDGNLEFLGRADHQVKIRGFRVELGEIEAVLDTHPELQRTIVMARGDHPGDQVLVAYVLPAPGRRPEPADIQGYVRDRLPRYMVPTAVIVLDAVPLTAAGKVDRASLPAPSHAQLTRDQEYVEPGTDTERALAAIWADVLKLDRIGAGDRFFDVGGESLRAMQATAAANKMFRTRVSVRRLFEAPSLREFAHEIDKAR
# apo-BlmI = assay: In vitro 4′-phosphopantetheinylation of BlmI by Sfp with [3H-pantetheine]-CoA; type: biochemical, Streptomyces verticillus; conditions: autoradiographic analysis
# Procedure: To investigate 4′-phosphopantetheinylation of BlmI in vitro, we chose the Sfp protein as the preferred PPTase, which had been isolated before from the surfactin producer Bacillus subtilis (Nakano et al. (1992) Mol. Gen. Genet. 232: 313-321).
# Expression of sfp in E. coli MV1190(pUC8-Sfp), purification of the Sfp PPTase to homogeneity, and 4′-phosphopantetheinylation of apo-BlmI by Sfp in vitro were carried out essentially according to literature procedures (Quadri et al. (1998) Biochemistry 37: 1585-1595; Nakano et al. (1992) Mol. Gen. Genet. 232: 313-321). A typical 100 μl assay solution contained 26 μM apo-BlmI, 2.9 μM Sfp, 25 μM [^3H-pantetheine]-CoA (0.9 μCi, 40 Ci/mM), 10 mM MgCl2, and 5 mM DTT, in 75 mM MES/NaOAc buffer, pH 6.0. After 30 min incubation at 37° C., the assays were stopped by addition of 5 μl of bovine serum albumin (0.2 mg/ml) and 0.9 ml of cold 10% (v/v) trichloroacetic acid (TCA). The precipitated proteins were collected by centrifugation at 14,000 rpm, 20 min, 4° C. (Eppendorf 5415C centrifuge), washed with 10% TCA three times, and resolved by SDS-PAGE on 15% gel. The ^3H-activity incorporated into holo-BlmI was similarly determined by autoradiography as described for in vivo labeling of holo-Blm with [3-^3H]-β-alanine.
# [5] = target: T5, apo-BlmI (type II peptidyl carrier protein BlmI, apo-form, produced from pBS2)
# T5 chain: B1 chain
molecule,measurement,setting,value
Val-A (adenylation domain of a type I NRPS from a gene cluster of Sv ATCC15003 unrelated to BLM biosynthesis),"in vitro aminoacylation in trans with L-[^14C(U)]valine and ATP, SDS-PAGE and autoradiography",[1],"nor incubation of L-[^14C(U)]valine with the Val-A and apo-BlmI proteins, resulted in the detection of ^14C-labeled BlmI protein"
same,"in vitro aminoacylation in trans with L-[^14C(U)]valine and ATP, SDS-PAGE and autoradiography",[2],the holo-BlmI was specifically labeled by L-[^14C(U)]valine in the presence of Val-A
Gsp PPTase from the gramicidin S producer Bacillus brevis (from UniProt P40683 1-237) (enzyme),"in vivo 4′-phosphopantetheinylation on co-expression with gsp, HPLC analysis",[3],> 60%
B1,overproduced BlmI modified into the holo-BlmI protein,Gsp PPTase,at least 60%
same,form of purified BlmI,[4],essentially in the apo-form
B2,PPTase activity on type II PCP,BlmI,robust phosphopantetheinylation activity
same,PPTase activity on type II ACP,TcmM,able to posttranslationally modified
same,PPTase activity on type I ACP,BlmVIII,able to posttranslationally modified
same,PPTase activity on type I PCP,MBlmX-2,robust phosphopantetheinylation activity
B3,transfer of 4′-phosphopantetheine group from CoA to apo-BlmI,apo-BlmI,can recognize apo-BlmI as a substrate
same,"in vitro 4′-phosphopantetheinylation with [^3H-pantetheine]-CoA, autoradiography",[5],"the apo-BlmI was quantitatively labeled by [^3H-pantetheine]-CoA, and no labeling was observed in the absence of either the apo-BlmI or the Sfp PPTase protein"
